The text below walks through data of patent US20190015361A1 (Maxwell Biosciences, Inc., priority 2017, published 2019).

For this assay, the system named is Aβ40 (t=0 days), Aβ42 (t=0 days), Aβ42 (t=24 days). Nature of the assay: SPRi interaction with the three immobilized Aβ forms. Type of assay: binding, human. The following applies: analyte flowed onto the SPRi chip for 10 minutes, all three Aβ forms.
Sequence of Aβ40 (t=0 days), Aβ42 (t=0 days), Aβ42 (t=24 days) (P05067 672-711 limits assumed): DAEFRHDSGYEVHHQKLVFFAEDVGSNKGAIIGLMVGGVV

B1: ovalbumin: non-correlated protein used as negative control sample in SPRi (Sigma-Aldrich, A5503) (protein)
chain: GSIGAASMEFCFDVFKELKVHHANENIFYCPIAIMSALAMVYLGAKDSTRTQINKVVRFDKLPGFGDSIEAQCGTSVNVHSSLRDILNQITKPNDVYSFSLASRLYAEERYPILPEYLQCVKELYRGGLEPINFQTAADQARELINSWVESQTNGIIRNVLQPSSVDSQTAMVLVNAIVFKGLWEKAFKDEDTQAMPFRVTEQESKPVQMMYQIGLFRVASMASEKMKILELPFASGTMSMLVLLPDEVSGLEQLESIINFEKLTEWTSSNVMEERKIKVYLPRMKMEEKYNLTSVLMAMGITDVFSSSANLSGISSAESLKISQAVHAAHAEINEAGREVVGSAEAGVDAASVSEEFRADHPFLFCIKHIATNAVLFFGRCVSP
Take B1: the SPRi interaction signal result is “did not produce interaction signals”.
